For experiment [1], the target named is T1, VHL E3 ubiquitin ligase complex containing HA tagged human pVHL (human, UniProt P40337 1-213).
T1 construct: also called VHL E3 ligase; 786-0/VHL cell extract
The experiment is described as follows: VHL E3 interaction assay with 35S-labelled IVTT product.

Experiment [2] deals with T2, mutant (Pro86His) pVHL (human, UniProt P40337 1-213).
T2 construct: also called mutant pVHL
The experiment is described as follows: biotinylated peptide capture on streptavidin beads.
Description: (§1) The 19:WT polypeptide was either incubated with cell extract before the binding assay or was untreated.

In experiment [3] the target is T2, mutant (Pro86His) pVHL. The experiment is described as follows: biotinylated peptide, after cell extract, capture on streptavidin beads.
Description: as §1
For experiment [4], the target named is T3, C. elegans HIF P621G mutant (C. elegans, UniProt G5EGD2 1-719).
T3 construct: also called ceHIF Pro621-Gly; pcDNA1cehif.P621G
T3 sequence: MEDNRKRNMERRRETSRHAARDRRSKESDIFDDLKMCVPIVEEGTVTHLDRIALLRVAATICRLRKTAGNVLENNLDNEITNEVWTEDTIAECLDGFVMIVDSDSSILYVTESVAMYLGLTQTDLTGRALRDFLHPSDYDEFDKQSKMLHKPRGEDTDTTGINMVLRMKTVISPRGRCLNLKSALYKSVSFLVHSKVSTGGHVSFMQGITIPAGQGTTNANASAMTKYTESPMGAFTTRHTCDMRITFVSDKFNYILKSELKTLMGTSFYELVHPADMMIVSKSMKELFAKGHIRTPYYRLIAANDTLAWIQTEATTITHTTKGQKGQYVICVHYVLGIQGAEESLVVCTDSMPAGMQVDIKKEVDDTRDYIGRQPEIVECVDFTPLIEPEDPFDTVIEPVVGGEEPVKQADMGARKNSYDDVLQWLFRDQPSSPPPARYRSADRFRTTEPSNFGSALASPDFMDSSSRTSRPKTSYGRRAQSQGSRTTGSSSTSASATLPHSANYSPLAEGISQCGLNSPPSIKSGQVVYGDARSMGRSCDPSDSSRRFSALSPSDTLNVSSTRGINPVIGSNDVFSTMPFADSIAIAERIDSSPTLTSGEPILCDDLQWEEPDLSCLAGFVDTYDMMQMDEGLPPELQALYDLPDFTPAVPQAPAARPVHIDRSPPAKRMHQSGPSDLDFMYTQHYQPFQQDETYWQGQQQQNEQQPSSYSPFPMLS
The experiment is described as follows: anti-HA co-IP of IVTT products.
Description: (§2) For interaction assays 1 μl of each programmed lysate was mixed in EBC buffer at 4° C. for 1 hr before anti-HA immunoprecipitation as described in Cockman et al. Pretreatment of ceHIF with worm extract was for 30 min at 25° C. with 10 μI of extract derived by hypotonic extraction of a worm homogenate in 20 mM Tris pH7.5, 5 mMKCl, 1.5 MgCl2, 1 mMDTT.

For experiment [5], the target named is T4, C. elegans HIF-α homologue, wild type (C. elegans, UniProt G5EGD2 1-719).
T4 construct: 35S-labelled reticulocyte IVTT from pcDNA1cehif; also called ceHIF; HIF-1 (C. elegans)
T4 sequence: T3 sequence with G621P
The experiment is described as follows: anti-HA co-IP of reticulocyte IVTTs, ceHIF pre-treated with worm extract.
Description: as §2

Where a chain is given by its changes, count along the chain named. In names and notes the source's numbering stands. Where no end group is shown, it is not given here. [ ]: non-standard residue; d: D form. Hyp = O=C(O)[C@@H]1C[C@@H](O)CN1

T2 sequence (P40337 whole entry P86H): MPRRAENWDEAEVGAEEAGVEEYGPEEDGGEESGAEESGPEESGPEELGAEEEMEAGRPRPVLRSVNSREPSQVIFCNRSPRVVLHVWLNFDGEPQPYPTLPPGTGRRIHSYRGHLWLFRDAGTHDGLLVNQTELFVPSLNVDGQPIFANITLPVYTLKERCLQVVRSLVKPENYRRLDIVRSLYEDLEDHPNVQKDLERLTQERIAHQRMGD
T1 sequence (P40337 whole entry, one chain of several): as the sequence (P40337 whole entry P86H) above, with H86P counted along it

B1: tat-NODD proline mutant (HIF-1α 343-417/P402A) (other)
chain: SGIIQHDLIFSLQQTECVLKPVESSDMKMTQLFTKVESEDTSSLFDKLKKEPDALTLLAAAAGDTIISLDFGSND
Regarding B1, the binding result in experiment [1] was “no binding”.

For DLDLEMLA[Hyp]YIPMDDDFQL (also: biotinylated version used in pVHL capture assays, also called 19:Pro564Hyp; B19Hyp), in the experiment with mutant (Pro86His) pVHL [2], the binding result is on record as “no binding”.

On to DLDLEMLAPYIPMDDDFQL (also: biotinylated version used in pVHL capture assays, also called 19:WT; 19 WT) [synthetic polypeptide of HIF-1α residues 556-574, unmodified], for which the binding result with mutant (Pro86His) pVHL [3] is recorded as “no binding”.

B2: c-terminal HA tagged ceVHL (other, not shown: small tags and cut ends)
chain: MSDGSMDDDGRLFPDLGSSTHDNREIRVRFLNRCAYPVDVFWLNPSKQPTKYGTLAQKKYLDIKTFKDHPWVARRSFDGCKVLVNEKEVFWPEPAPRMNLIVRNHCVITMKVQSLREIAGRSFLRHNPTEVPNKIKGLPRELQFEVKHFLDRKQEYSEIVCRSIPPPGPQRPQQ
notes: also called ceVHL-HA
Turning to B2, the binding result in experiment [4] is listed as “no binding”; in experiment [5], “binds”.

Consider PFSTQDTDLDLEMLAGYIPMDDDFQLRSFDQLSP (other) [tat-CODD proline mutant (HIF-1α 549-582/P564G)], for which the binding result in experiment [1] is “no binding”.

(Values after patent publication US20040146964A1 (ISIS INNOVATION, published 2004).)
